Assay results taken from the supplement of paper PMC10567573.

B1: TOR1AIP2 (parent)
chain: YKYCDHENAAFKDVALVLTVLLEE

Variants of: B1
Assay: protein stability index of a GFP-peptide fusion (GPS, HEK-293T) (PSI 1-6); higher = more stable
Conditions: c terminus: a fixed tail appended
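Further: lentivirally expressed fusions sorted by FACS into six bins by GFP to DsRed ratio, PSI derived from sequencing read proportions per bin multiplied by bin number.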

| Variant | protein stability index |
| --- | --- |
| YKCCDHENAAFKDVALVLTVLLEE [Y3C] | 1.51 |
| YKSCDHENAAFKDVALVLTVLLEE [Y3S] | 2.41 |
| YKDCDHENAAFKDVALVLTVLLEE [Y3D] | 2.78 |
| YKLCDHENAAFKDVALVLTVLLEE [Y3L] | 2.89 |
| YKVCDHENAAFKDVALVLTVLLEE [Y3V] | 1.83 |
| YKACDHENAAFKDVALVLTVLLEE [Y3A] | 3.02 |
| YKPCDHENAAFKDVALVLTVLLEE [Y3P] | 3.07 |
| YKYDDHENAAFKDVALVLTVLLEE [C4D] | 1.05 |
| YKYGDHENAAFKDVALVLTVLLEE [C4G] | 1.35 |
| YKYCDHENAAFKDVALALTVLLEE [V17A] | 3.79 |
| YKYCDHENAAFKDVALDLTVLLEE [V17D] | 2.23 |
| YKYCDVENAAFKDVALVLTVLLEE [H6V] | 2.57 |
| YKYCDLENAAFKDVALVLTVLLEE [H6L] | 2.49 |
| YKYCDPENAAFKDVALVLTVLLEE [H6P] | 2 |
| YKYCDQENAAFKDVALVLTVLLEE [H6Q] | 3.06 |
| YKYCDGENAAFKDVALVLTVLLEE [H6G] | 2.26 |
| YKYCDCENAAFKDVALVLTVLLEE [H6C] | 2.09 |
| YKYCDIENAAFKDVALVLTVLLEE [H6I] | 1.05 |
| YKYCDHENWAFKDVALVLTVLLEE [A9W] | 3.05 |
| YKYCDHENEAFKDVALVLTVLLEE [A9E] | 1.75 |
| YKYCDHENDAFKDVALVLTVLLEE [A9D] | 1.4 |
| YKYCDHENIAFKDVALVLTVLLEE [A9I] | 3.88 |
| YKYCDHENQAFKDVALVLTVLLEE [A9Q] | 3.72 |
| YKYCDHENNAFKDVALVLTVLLEE [A9N] | 3.72 |

| Variant | protein stability index |
| --- | --- |
| YKYCDHENCAFKDVALVLTVLLEE [A9C] | 4.55 |
| YKYCDHERAAFKDVALVLTVLLEE [N8R] | 4.51 |
| YKYCDHEQAAFKDVALVLTVLLEE [N8Q] | 2.7 |
| YKYCDHEEAAFKDVALVLTVLLEE [N8E] | 1.56 |
| YKYCDHEMAAFKDVALVLTVLLEE [N8M] | 3.45 |
| YKYCDHEVAAFKDVALVLTVLLEE [N8V] | 1.81 |
| YKYCDHESAAFKDVALVLTVLLEE [N8S] | 2.9 |
| YKYCDHEYAAFKDVALVLTVLLEE [N8Y] | 2.07 |
| YKYCDHENAAFKYVALVLTVLLEE [D13Y] | 4.52 |
| YKYCDHENAAFKTVALVLTVLLEE [D13T] | 2.09 |
| YKYCDHENAAFKLVALVLTVLLEE [D13L] | 3.1 |
| YKYCDHENAAFKGVALVLTVLLEE [D13G] | 1.75 |
| YKYCDHENAAFKSVALVLTVLLEE [D13S] | 2.91 |
| YKYCDHENAAFKFVALVLTVLLEE [D13F] | 2.83 |
| YKYCDHENAAFKQVALVLTVLLEE [D13Q] | 2.66 |
| YKYCDHENAAFKEVALVLTVLLEE [D13E] | 2.46 |
| YKYCDHENAAFKCVALVLTVLLEE [D13C] | 2.1 |
| YKYCDHENAIFKDVALVLTVLLEE [A10I] | 2.35 |
| YKYCDHENAYFKDVALVLTVLLEE [A10Y] | 3.38 |
| YKYCDHENAMFKDVALVLTVLLEE [A10M] | 1.93 |
| YKYCDHENAWFKDVALVLTVLLEE [A10W] | 3.86 |
| YKYCDHENASFKDVALVLTVLLEE [A10S] | 1.98 |
| YKYCDHENALFKDVALVLTVLLEE [A10L] | 2.83 |
| YKYCDHENAPFKDVALVLTVLLEE [A10P] | 1.16 |

| Variant | protein stability index |
| --- | --- |
| YKYCDHENARFKDVALVLTVLLEE [A10R] | 1.01 |
| YKYCDHENAKFKDVALVLTVLLEE [A10K] | 3.02 |
| YKYCDHENAGFKDVALVLTVLLEE [A10G] | 2.42 |
| YKYCDHENAANKDVALVLTVLLEE [F11N] | 1.38 |
| YKYCDHENAATKDVALVLTVLLEE [F11T] | 1.49 |
| YKYCDHENAAAKDVALVLTVLLEE [F11A] | 2.73 |
| YKYCDHENAAIKDVALVLTVLLEE [F11I] | 1.07 |
| YKYCDHENAASKDVALVLTVLLEE [F11S] | 2.04 |
| YKYCDHENAAKKDVALVLTVLLEE [F11K] | 1.2 |
| YKYCDHENAACKDVALVLTVLLEE [F11C] | 1.03 |
| YKYCDHENAAGKDVALVLTVLLEE [F11G] | 3.68 |
| YKYCDHENAAQKDVALVLTVLLEE [F11Q] | 2.6 |
| YKYCDHENAAHKDVALVLTVLLEE [F11H] | 2.44 |
| YKYCDHENAAYKDVALVLTVLLEE [F11Y] | 2.67 |
| YKYCDHINAAFKDVALVLTVLLEE [E7I] | 3.39 |
| YKYCDHRNAAFKDVALVLTVLLEE [E7R] | 2.5 |
| YKYCDHCNAAFKDVALVLTVLLEE [E7C] | 4.53 |
| YKYCDHLNAAFKDVALVLTVLLEE [E7L] | 2.71 |
| YKYCDHPNAAFKDVALVLTVLLEE [E7P] | 3.94 |
| YKYCDHNNAAFKDVALVLTVLLEE [E7N] | 3.84 |
| YKYCDHQNAAFKDVALVLTVLLEE [E7Q] | 2.52 |
| YKYCDHSNAAFKDVALVLTVLLEE [E7S] | 2.31 |
| YKYCDHENAAFKDVSLVLTVLLEE [A15S] | 2.69 |
| YKYCDHENAAFKDVRLVLTVLLEE [A15R] | 2.8 |

| Variant | protein stability index |
| --- | --- |
| YKYCDHENAAFKDVQLVLTVLLEE [A15Q] | 2.58 |
| YKYCDHENAAFKDVILVLTVLLEE [A15I] | 1.96 |
| YKYCDHENAAFKDVGLVLTVLLEE [A15G] | 3.58 |
| YKYCDHENAAFKDVTLVLTVLLEE [A15T] | 3.21 |
| YKYCDHENAAFKDVPLVLTVLLEE [A15P] | 2.05 |
| YKYCDHENAAFKDVELVLTVLLEE [A15E] | 1 |
| YKYCDHENAAFKDVASVLTVLLEE [L16S] | 2.2 |
| YKYCDHENAAFKDVAHVLTVLLEE [L16H] | 1.9 |
| YKYCDHENAAFKDVARVLTVLLEE [L16R] | 1.4 |
| YKYCDHENAAFKDVAWVLTVLLEE [L16W] | 3.88 |
| YKYCDHENAAFKDVAKVLTVLLEE [L16K] | 2.72 |
| YKYCDHENAAFKDVATVLTVLLEE [L16T] | 1.5 |
| YKYCDHENAAFKDVAPVLTVLLEE [L16P] | 2.36 |
| YKYCDHENAAFKDVACVLTVLLEE [L16C] | 1.47 |
| YKYCDHENAAFKDVANVLTVLLEE [L16N] | 2.88 |
| YKYCDHENAAFKDVAEVLTVLLEE [L16E] | 1.51 |
| YKYCRHENAAFKDVALVLTVLLEE [D5R] | 3.8 |
| YKYCSHENAAFKDVALVLTVLLEE [D5S] | 2.61 |
| YKYCPHENAAFKDVALVLTVLLEE [D5P] | 3.2 |
| YKYCYHENAAFKDVALVLTVLLEE [D5Y] | 2.4 |
| YKYCNHENAAFKDVALVLTVLLEE [D5N] | 2.94 |
| YKYCEHENAAFKDVALVLTVLLEE [D5E] | 3.08 |
